Among the data in PMC6182156 are K1/2 values, retold here.

Common to all, as to experiment: native gel or EMSA
In general terms: A gel shift assay detects complexes by their altered migration in electrophoresis.

For test [1], the target named is H2A.Z/H3K9cme3 12N200 nucleosome array (UniProt P0C0S5).
The target in test [2] is 147 bp nucleosome core particle (N147), unmodified histones.
For test [3], the target named is 12N200 nucleosome array assembled with linker histone H1.4 (UniProt P10412).
Test [4] has as its target N203 mononucleosome with a stoichiometric amount of linker histone H1.4 (UniProt P10412).
In test [5] the target is H2A.Z/H3K9cme3 12N200 nucleosome array saturated with H1.4 (UniProt P0C0S5).
Test [6] deals with symmetric 203 bp mononucleosome (N203), unmodified histones.
Test [7] addresses 12 x 200 x 601 (12N200) nucleosome array, unmodified histones.

Take “HP1α (Heterochromatin Protein 1 alpha), wild type (from UniProt P45973 1-191) (natural protein)”: the K1/2 worked out at 0.23 µM in test [1]; 2.29 µM in test [2]; 2.15 µM in test [3]; 1.26 µM in test [4]; 1.15 µM in test [5]; 0.58 µM in test [6]. This substance also returned a K1/2 in test [7] of 0.71 µM.
